Patent US9315563B2, “Peptides that inhibit angiotensin converting enzyme and peptides with antioxidant activity purified from ovotransferrin and methods of producing and using the same” (The Governors of the University of Alberta, priority 2009, dated 2016)

Assay: ORAC-FL assay (oxygen radical absorbance capacity)
Conditions: ovotransferrin hydrolysates
Procedure: Briefly, 80 mM AAPH and 200 nM fluorescein in 75 mM phosphate buffer at pH 7.4 were prepared for each experiment. For each run, 20 μL of antioxidant, and 80 μL of phosphate buffer (or 100 μL of Trolox standard solutions at final concentrations of 1 to 8 μM) were placed in wells of a 96-well microplate, followed by addition of 50 μL of the fluorescein solution. The mixture was preincubated for 15 min at 37° C. 50 μL of AAPH solution was added rapidly using a multichannel pipet. The microplate was immediately placed in a Fluoroskan Ascent microplate reader (Thermo Electron Corporation) with 485-P excitation and 538-P emission filters and the fluorescence recorded every minute for 100 min. All readings were recorded using Fluoroskan Ascent software. The area under the curve of fluorescence decay (AUC) was calculated using Graphpad prism software (trial version). Regression equations between AUC and antioxidant concentrations were calculated for all the samples. The ORAC value was calculated by dividing the slope of sample regression curve by the slope of Trolox regression curve. Final ORAC values were expressed as μmol of Trolox equivalent/mg of protein or peptide.

B1: Unhydrolyzed ovotransferrin: egg ovotransferrin, un-hydrolyzed parent protein (protein, UniProt P02789 20-705, looked up)
Ovotransferrin: APPKSVIRWCTISSPEEKKCNNLRDLTQQERISLTCVQKATYLDCIKAIANNEADAISLDGGQAFEAGLAPYKLKPIAAEVYEHTEGSTTSYYAVAVVKKGTEFTVNDLQGKTSCHTGLGRSAGWNIPIGTLLHRGAIEWEGIESGSVEQAVAKFFSASCVPGATIEQKLCRQCKGDPKTKCARNAPYSGYSGAFHCLKDGKGDVAFVKHTTVNENAPDQKDEYELLCLDGSRQPVDNYKTCNWARVAAHAVVARDDNKVEDIWSFLSKAQSDFGVDTKSDFHLFGPPGKKDPVLKDLLFKDSAIMLKRVPSLMDSQLYLGFEYYSAIQSMRKDQLTPSPRENRIQWCAVGKDEKSKCDRWSVVSNGDVECTVVDETKDCIIKIMKGEADAVALDGGLVYTAGVCGLVPVMAERYDDESQCSKTDERPASYFAVAVARKDSNVNWNNLKGKKSCHTAVGRTAGWVIPMGLIHNRTGTCNFDEYFSEGCAPGSPPNSRLCQLCQGSGGIPPEKCVASSHEKYFGYTGALRCLVEKGDVAFIQHSTVEENTGGKNKADWAKNLQMDDFELLCTDGRRANVMDYRECNLAEVPTHAVVVRPEKANKIRDLLERQEKRFGVNGSEKSKFMMFESQNKDLLFKDLTKCLFKVREGTTYKEFLGDKFYTVISSLKTCNPSDILQMCSFLEGK
- ORAC: 0.21 ± 0.04 µmol/mg
